Data taken from patent publication US10088479B2, “Biomarker and uses thereof” (ISIS INNOVATION LIMITED, priority 2014, dated 2018).

B1: FBG: recombinant fibrinogen-like globe domain of human tenascin-C (protein)
chain: GLLYPFPKDCSQAMLNGDTTSGLYTIYLNGDKAEALEVFCDMTSDGGGWIVFLRRKNGRENFYQNWKAYAAGFGDRREEFWLGLDNLNKITAQGQYELRVDLRDHGETAFAVYDKFSVGDAKTRYKLKVEGYSGTAGDSMAYHNGRSFSTFDKDTDSAITNCALSYKGAFWYRNCHRVNLMGRYGDNNHSQGVNWFHWKGHEHSIQFAEMKLRPSNFRNLEGRRKRA
modifications: left off: small tags and cut ends
notes: recombinant fibrinogen-like globe domain of human tenascin-C

Tests used:
RA synovial fibroblasts = assay: Cytokine synthesis (ELISA) in RA synovial fibroblasts stimulated with tenascin-C, FBG or LPS; format: cell-based, human; conditions: 24 h; for cytokine synthesis (IL-6, IL-8) in synovial fibroblasts: LPS 10 ng/ml
Source text: (§1) RA membrane cells (representing a mixed population of all synovial cell types) were to isolated from synovial membranes obtained from patients undergoing joint replacement surgery as previously described (Brennan (1989)). RA synovial fibroblasts were isolated from the mixed population of RA membrane cells as previously described (Brennan (1989)). The study was approved by the local Trust ethics committee (Riverside NHS Research Committee), and waste tissue (synovium after joint replacement surgery) was obtained only after receiving signed informed consent from the patient and anonymyzing the tissue to protect patient identity.
(§2) Immediately after isolation, RA membrane cells and macrophages were cultured at 1×10^5 cells/well in RPMI 1640 containing 10% (v/v) FBS and 100 U/ml (Units/ml) penicillin/streptomycin in 96-well tissue culture plates for 24 hours before stimulation. Synovial fibroblasts (used only at either passage number 2 or 3) were cultured at 1×10^4 cells/well in DMEM containing 10% (v/v) FBS and 100 U/ml penicillin/streptomycin in 96-well tissue culture plates for 24 hours before stimulation.
(§3) Cells were incubated for 24 hours at 37° C. with the indicated doses of tenascin-C and recombinant tenascin-C fragments (1.0 μM-1.0 nM). Cells were also stimulated where indicated with LPS (1 ng/ml for human macrophages, 10 ng/ml for human fibroblasts, RA membrane cells and HEKs, 100 ng/ml for MEFS and BMDMs and 10 ng/ml for HEKS), PAM3 (10 ng/ml for human macrophages, human fibroblasts, and HEKs, 100 ng/ml for MEFs and BMDMs), murine IL-1 (5 ng/ml for MEFS) and murine TNF-α (100 ng/ml for MEFS). Unless specifically stated otherwise rough LPS was used for in vitro studies.
(§4) Supernatants were subsequently examined for the presence of the cytokines TNF-α, IL-6, and IL-8 by enzyme-linked immunosorbent assay (ELISA) according to the manufacturer's instructions. Absorbance was read on a spectrophotometric ELISA plate reader (Labsystems Multiscan Biochromic, Vantaa, Finland) and analyzed using the Ascent software program (Thermo Labsystems, Altrincham, UK).

[1] = tested on: primary human macrophages; assay: Cytokine synthesis (ELISA) in primary human macrophages stimulated with tenascin-C or its domains; format: cell-based; conditions: 24 h
Protocol: Human monocytes were isolated from peripheral blood (London Blood Bank) and macrophages were derived from monocytes after differentiation for 4 days with 100 ng/ml of M-CSF as previously described (Foxwell (1998)).
as §2
Cells were incubated for 24 hours at 37° C. with the indicated doses of tenascin-C and recombinant tenascin-C fragments (1.0 μM-1.0 nM). […]
as §4

serum from RA patients = assay: Western blot of citrullinated tenascin-C probed with serum from RA patients or healthy controls; format: binding, human; conditions: sera from RA patients or normal healthy controls
Protocol: 33.33 ul of citrullination reaction (cit-TNC alone or cit-TNC combined with cit-FBG) was loaded into NuPAGE® Novex 4-12% Bis-tris gel using a 1.0 mm 2D single lane well.
After electrophoresis proteins were transferred to nitrocellulose and the membrane blocked and then cut into strips (up to 8 strips ˜0.7 cm wide). Strips were incubated with serum from RA patients or normal healthy individuals diluted 1:100 in 5% milk TBS-tween. Strips were incubated in 15 ml falcon tubes on rollers 1 h room temperature, then washed 3×5 min, 1×15 min in tubes with TBS-Tween. Strips were then incubated with secondary mouse anti-human Ig 1:5000 1 h in room temperature, then washed 3×5 min, 1×15 min in the dish with TBS-tween. Strips were finally incubated with ECL reagents and exposed to film.

[2] = tested on: embryonic fibroblasts or macrophages; assay: Cytokine synthesis in embryonic fibroblasts or macrophages from MyD88, TLR2 or TLR4 deficient mice; format: cell-based; conditions: FBG 1 μM, 24 h
Protocol: MEFs express high levels of mRNA of all 9 murine TLRs and are specifically and highly responsive to TLR ligand activation. […] MEFs were isolated from d13 embryos harvested from age-matched, pregnant female wild type, TLR2, TLR4 and null mice (as described in Todaro (1963)). Fibroblasts were cultured at 2×10^4 cells/well in DMEM containing 10% (v/v) FBS and 100 U/ml penicillin/streptomycin in 96-well tissue culture plates for 24 hours before stimulation.
BMDMs were derived by aspirating the femurs of age matched female wild type, TLR2 and TLR4 null mice as described in Butler (1999)) and culturing the cells for 7 days in DMEM, 20% (v/v) FBS, 10 ml/L (v/v) antibiotic-antimycotic solution PSA, 50 μM β-Mercaptoethanol and 10 ng/ml M-CSF. Macrophages were then cultured at 1×10^5 cells/well in DMEM, 20% (v/v) FBS, 10 ml/L (v/v) antibiotic-antimycotic solution PSA, 50 μM β-Mercaptoethanol in 96-well tissue culture plates for 24 hours before stimulation.
as §3, §4

[3] = tested on: human dermal fibroblasts (HDF); assay: Cell adhesion to coated FBG, crystal violet; format: cell-based; conditions: coated wells, 45 minutes
Protocol: (§5) (A) The sequence identified to bind integrin αvβ3 is shown in white (Yokoyama et al., 2000). Within this sequence two Arginines (shown in black) were identified to be citrullinated. (B) Wells of a 96 well plate were coated with different concentrations of FBG, citrullinated FBG (cFBG), FBG incubated in buffer without Calcium (FBG —Ca^2+), or FBG incubated without PAD (FBG —PAD). As a positive control wells were coated with Fibronectin (FN) (1 ug/ml), and coating with BSA (10 mg/ml) served as negative control. Plates were incubated with human dermal fibroblasts (HDF) or synovial fibroblasts from RA patients (RAF) for 45 minutes and adhesion was measured by determining absorbance of attached cells after staining with crystal violet (0.1%). Data are shown as the mean of at least four independent experiments+s.e.m., *=p<0.05, **=p<0.01.

knee joint = assay: Intra-articular injection of FBG into mouse knee joint, histology; format: in vivo, mice; conditions: for joint inflammation, histology: wild type mice
Protocol: Wild type mice were anesthetized by intraperitoneal injection of 150 μl of Hypnorm diluted 1:10 in sterile water and then injected with 100 ng, 1 or 3 μg FBG in 10 μl of sterile PBS into the right knee joint using a sterile 33-gauge microcannula. Control mice received an injection of 10 μl PBS alone or were not injected.
On days 3 and 7, mice were euthanized, the knee joints were excised and fixed in 10% (volume/volume) buffered formalin, decalcified, with 10% EDTA and processed to paraffin.
Coronal tissue sections (4 μm) were cut at 7 depths throughout the joint; 80 μm apart and stained with hematoxylin and eosin or Safranin-O to assess joint pathology. Histopathologic changes were scored using the following parameters as described in Van Lent (2006).
Inflammation (the influx of inflammatory cells into synovium (infiltrate) and the joint cavity (exudates), was graded using an arbitrary scale from 0 (no inflammation) to 3 (severe inflammation). Chondrocyte death was determined as the percentage of cartilage area containing empty lacunae in relation to the total area. Cartilage surface erosion was determined as the amount of cartilage lost in relation to the total cartilage area. Bone destruction was determined in 10 different areas of the total knee joint section. Destruction was graded on a scale of 0 (no damage) to 3 (complete loss of bone structure). Histological analysis was performed by an investigator who was blinded to the experimental groups. The mean score for each animal in an experimental group was calculated by averaging the histopathologic scores in at least 5 section depths per joint.

[4] = tested on: synovial membranes from RA patients; assay: Cytokine synthesis in RA synovial membrane cells stimulated with FBG; format: cell-based, human; conditions: FBG 1.0-0.01 μM, 24 h
Source text: as §1
Immediately after isolation, RA membrane cells and macrophages were cultured at 1×10^5 cells/well in RPMI 1640 containing 10% (v/v) FBS and 100 U/ml (Units/ml) penicillin/streptomycin in 96-well tissue culture plates for 24 hours before stimulation. […]
as §4

[5] = tested on: synovial fibroblasts from RA joints (RAF); assay: Cell adhesion to coated FBG, crystal violet; format: cell-based, human; conditions: coated wells, 45 minutes
Protocol: as §5

| Molecule | TNF-α synthesis in fibroblasts (RA synovial fibroblasts) | cytokine synthesis (IL-6, IL-8) in synovial fibroblasts (RA synovial fibroblasts) | production of TNF-α, IL-6 and IL-8 ([1]; human macrophages) | reactivity with sera in blots (serum from RA patients) | cytokine synthesis in MyD88 deficient embryonic fibroblasts ([2]; MyD88 -/-) | cytokine synthesis in TLR2 deficient embryonic fibroblasts or macrophages ([2]; TLR2 -/-) | cytokine synthesis in TLR4 deficient embryonic fibroblasts or macrophages ([2]; TLR4 -/-) | adhesion of HDF [3] | joint inflammation (knee joint; TLR2 null mice, 1 μg FBG intra-articular, 3 days) | joint inflammation, histology (knee joint; 100 ng FBG intra-articular) | joint inflammation, histology (knee joint; 1 μg FBG intra-articular, 3 days) | joint inflammation, histology (knee joint; 3 μg FBG intra-articular) | TNF-α synthesis in human macrophages ([1]; 1.0 μM tenascin-C domains) | synthesis of IL-6, IL-8 and TNF-α in RA synovial membranes [4] | adhesion of RAF [5] |
| --- | --- | --- | --- | --- | --- | --- | --- | --- | --- | --- | --- | --- | --- | --- | --- |
| tenascin-C: purified recombinant full-length human tenascin-C, native (non-citrullinated) | Neither LPS nor tenascin-C induced TNF-α synthesis | only induced IL-6 synthesis | dose dependently stimulated | No reactivity | – | – | – | – | – | – | – | – | – | – | – |
| B1 | – | did not induce IL-8 synthesis | – | – | does not stimulate cytokine synthesis | unaffected | does not stimulate cytokine synthesis | proadhesive | able to induce joint inflammation | No inflammation or proteoglycan loss | inflammatory cell infiltration (FIG. 6f), mild synovitis, pannus formation (FIG. 6g) and proteoglycan loss (FIG. 6h) | A similar response | stimulated | further enhanced synthesis of all these cytokines | proadhesive |
